Source: paper PMC8988010 (The Journal of Biological Chemistry, 2021)

Assays:
HNF-1A DD-DBD N266S = HNF-1A DD-DBD N266S (Homo sapiens, UniProt P20823 1-279, N266S); test: ITC
HNF-1A DBD N266S = HNF-1A DBD N266S (Homo sapiens, UniProt P20823 83-279, N266S); test: ITC
HNF-1A DD-DBD R263C = HNF-1A DD-DBD R263C (Homo sapiens, UniProt P20823 1-279, R263C); test: ITC
HNF-1A DBD R263C = HNF-1A DBD R263C (Homo sapiens, UniProt P20823 83-279, R263C); test: ITC
SEC-MALS = molecular target: the molecule itself; test: SEC-MALS

B1: RA (rat albumin promoter oligonucleotide), unlabeled (dsDNA)
DNA 1: CTTGGTTAATAATTCACCAGA
DNA 2: TCTGGTGAATTATTAACCAAG
HNF-1A DD-DBD N266S
  Kd: 0.74 ± 0.11 µM
HNF-1A DBD N266S
  Kd: 0.57 ± 0.05 µM
HNF-1A DD-DBD R263C
  Kd: 8 ± 3 µM
HNF-1A DBD R263C
  Kd: 2 ± 0.14 µM

B2: HNF-1A DD-DBD (hepatocyte nuclear factor 1A, residues 1-279, WT) (domain or fragment, human, UniProt P20823 1-279, looked up)
chain: MVSKLSQLQTELLAALLESGLSKEALIQALGEPGPYLLAGEGPLDKGESCGGGRGELAELPNGLGETRGSEDETDDDGEDFTPPILKELENLSPEEAAHQKAVVETLLQEDPWRVAKMVKSYLQQHNIPQREVVDTTGLNQSHLSQHLNKGTPMKTQKRAALYTWYVRKQREVAQQFTHAGQGGLIEEPTGDELPTKKGRRNRFKWGPASQQILFQAYERQKNPSKEERETLVEECNRAECIQRGVSPSQAQGLGSNLVTEVRVYNWFANRRKEEAFRH
SEC-MALS
  stoichiometry N: 2

B3: HNF-1A DD-DBD/R263C (residues 1-279, MODY3 variant p.Arg263Cys) (domain or fragment, human, UniProt P20823 1-279, looked up)
chain: MVSKLSQLQTELLAALLESGLSKEALIQALGEPGPYLLAGEGPLDKGESCGGGRGELAELPNGLGETRGSEDETDDDGEDFTPPILKELENLSPEEAAHQKAVVETLLQEDPWRVAKMVKSYLQQHNIPQREVVDTTGLNQSHLSQHLNKGTPMKTQKRAALYTWYVRKQREVAQQFTHAGQGGLIEEPTGDELPTKKGRRNRFKWGPASQQILFQAYERQKNPSKEERETLVEECNRAECIQRGVSPSQAQGLGSNLVTEVCVYNWFANRRKEEAFRH
SEC-MALS
  stoichiometry N: 2

B4: HNF-1A DD-DBD/N266S (residues 1-279, variant p.Asn266Ser) (domain or fragment, human, UniProt P20823 1-279, looked up)
chain: MVSKLSQLQTELLAALLESGLSKEALIQALGEPGPYLLAGEGPLDKGESCGGGRGELAELPNGLGETRGSEDETDDDGEDFTPPILKELENLSPEEAAHQKAVVETLLQEDPWRVAKMVKSYLQQHNIPQREVVDTTGLNQSHLSQHLNKGTPMKTQKRAALYTWYVRKQREVAQQFTHAGQGGLIEEPTGDELPTKKGRRNRFKWGPASQQILFQAYERQKNPSKEERETLVEECNRAECIQRGVSPSQAQGLGSNLVTEVRVYSWFANRRKEEAFRH
SEC-MALS
  binding result: binds
